Measured values: publication PMC11573651

Target: His-NifH^RS (Roseiflexus sp. RS-1 dinitrogenase reductase NifH) (Roseiflexus sp. RS-1)
Assay: not stated; molecular size and quaternary structure of the purified protein (Table 1); the method is in SI Appendix Figs. S8, S9, S14 and S15

stoichiometry N: 2
Substance: His-NifH^RS (Roseiflexus sp. RS-1 dinitrogenase reductase NifH) (natural protein)
